The results in this text go back to patent US20100040637A1.

The target in this assay is human prominin-1 (CD133) (human) (UniProt O43490). Description: cell-based or functional assay.
UniProt O43490, sequence (O43490 20-865): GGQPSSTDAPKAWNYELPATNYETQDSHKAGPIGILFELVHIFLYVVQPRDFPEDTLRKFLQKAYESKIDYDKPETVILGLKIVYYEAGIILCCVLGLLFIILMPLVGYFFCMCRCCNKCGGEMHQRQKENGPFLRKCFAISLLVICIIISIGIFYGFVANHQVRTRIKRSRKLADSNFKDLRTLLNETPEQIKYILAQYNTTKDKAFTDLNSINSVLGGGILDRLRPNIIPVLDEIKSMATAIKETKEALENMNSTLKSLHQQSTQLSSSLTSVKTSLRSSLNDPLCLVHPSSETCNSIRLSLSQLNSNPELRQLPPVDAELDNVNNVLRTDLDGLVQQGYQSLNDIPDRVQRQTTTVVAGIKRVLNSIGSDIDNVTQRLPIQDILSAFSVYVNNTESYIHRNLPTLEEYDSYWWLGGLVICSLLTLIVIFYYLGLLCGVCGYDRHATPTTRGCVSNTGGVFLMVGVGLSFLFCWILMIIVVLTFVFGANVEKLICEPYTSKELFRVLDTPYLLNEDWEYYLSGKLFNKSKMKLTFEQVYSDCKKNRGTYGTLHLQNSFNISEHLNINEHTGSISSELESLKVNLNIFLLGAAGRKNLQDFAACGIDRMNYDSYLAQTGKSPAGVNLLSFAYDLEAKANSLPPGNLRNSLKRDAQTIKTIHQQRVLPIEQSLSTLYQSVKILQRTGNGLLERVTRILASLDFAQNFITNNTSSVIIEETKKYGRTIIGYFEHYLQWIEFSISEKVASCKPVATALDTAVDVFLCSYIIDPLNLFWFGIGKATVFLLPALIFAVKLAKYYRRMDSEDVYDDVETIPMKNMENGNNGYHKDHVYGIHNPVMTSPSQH

The substance “AC133-mcMMAF (AC133 conjugated to maleimidocaproyl-MMAF) (antibody)” returned an IC50, cytotoxicity (resazurin) on HEK293 cells stably expressing CD133 of 1 ng/mL; an IC50, cytotoxicity (rezasurin dye conversion) in Hep3B cells of 6 nM; an IC50, growth inhibition (3H-thymidine) of Caco-2 cells of 100 ng/mL.
“AC133-vcMMAE (AC133 conjugated to maleimidocaproyl-valine-citrulline-p-aminobenzoyl-MMAE) (antibody)”: the IC50, cytotoxicity (resazurin) on HEK293 cells stably expressing CD133 was found to be 6 ng/mL and the IC50, growth inhibition (3H-thymidine) of Caco-2 cells amounted to 1000 ng/mL.
“AC133-vcMMAF (AC133 conjugated to maleimidocaproyl-valine-citrulline-p-aminobenzoyl-MMAF) (antibody)”: the IC50, cytotoxicity (resazurin) on HEK293 cells stably expressing CD133 worked out at 1 ng/mL; the IC50, cytotoxicity (rezasurin dye conversion) in Hep3B cells was 0.35 nM; the IC50, cytotoxicity assay in Caco-2 cells came out at 3 ng/mL; the IC50, growth inhibition (3H-thymidine) of Caco-2 cells is less than 1 ng/mL.
